In patent US20240190962A1 (IMMUNOWAKE, published 2024):

Experiments:
[1] = biological target: human IL-12 receptor complex (IL-12Rβ1, IL-12Rβ2) (human, UniProt P42701 24-662; Q99665 24-862); test: cell-based or functional assay
CD8 on CD8+ T cells = biological target: T1, CD8 on CD8+ T cells (UniProt P01732 22-235); test: FACS
T1 construct: whole, on cells
T1 sequence (P01732 22-235): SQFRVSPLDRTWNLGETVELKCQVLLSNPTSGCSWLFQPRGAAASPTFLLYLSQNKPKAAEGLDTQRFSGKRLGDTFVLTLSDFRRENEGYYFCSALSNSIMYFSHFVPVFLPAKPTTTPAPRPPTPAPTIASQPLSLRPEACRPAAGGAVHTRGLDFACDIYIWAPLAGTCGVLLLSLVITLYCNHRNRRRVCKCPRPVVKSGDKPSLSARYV

Sequence of human IL-12 receptor complex (IL-12Rβ1, IL-12Rβ2) (Q99665 24-862, chain 2 of 2, other chains not shown): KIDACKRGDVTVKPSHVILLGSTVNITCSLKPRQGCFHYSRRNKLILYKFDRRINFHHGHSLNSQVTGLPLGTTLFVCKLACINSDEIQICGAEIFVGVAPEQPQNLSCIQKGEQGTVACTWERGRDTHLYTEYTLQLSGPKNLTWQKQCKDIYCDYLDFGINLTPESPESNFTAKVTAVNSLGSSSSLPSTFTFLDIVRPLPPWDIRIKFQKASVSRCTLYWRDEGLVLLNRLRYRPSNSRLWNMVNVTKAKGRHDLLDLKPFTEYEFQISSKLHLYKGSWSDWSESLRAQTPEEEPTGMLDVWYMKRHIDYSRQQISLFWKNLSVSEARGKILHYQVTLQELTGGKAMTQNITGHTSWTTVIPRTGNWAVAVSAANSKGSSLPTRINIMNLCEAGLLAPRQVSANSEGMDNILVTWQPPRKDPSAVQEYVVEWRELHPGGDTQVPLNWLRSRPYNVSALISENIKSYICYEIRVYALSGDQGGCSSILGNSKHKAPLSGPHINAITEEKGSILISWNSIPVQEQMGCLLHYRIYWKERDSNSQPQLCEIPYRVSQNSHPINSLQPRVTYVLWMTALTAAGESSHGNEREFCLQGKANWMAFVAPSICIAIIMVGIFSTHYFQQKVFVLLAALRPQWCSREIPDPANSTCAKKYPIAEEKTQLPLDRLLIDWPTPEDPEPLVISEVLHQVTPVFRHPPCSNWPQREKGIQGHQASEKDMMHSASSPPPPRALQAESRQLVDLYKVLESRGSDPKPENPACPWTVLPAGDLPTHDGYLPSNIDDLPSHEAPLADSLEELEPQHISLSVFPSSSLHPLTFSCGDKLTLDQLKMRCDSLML

Binder | IL-12 biological activity (IFN-γ release), CD4+ T cells [1] | IL-12 biological activity (IFN-γ release), CD8+ T cells [1] | binding result (CD8 on CD8+ T cells)
Fab-IL-12(WT)-Fc-CD4 Ab (other, copies: 2 + 1 + 1) light: not shown heavy 1: QVQLQQSGPEVVKPGASVKMSCKASGYTFTSYVIHWVRQKPGQGLDWIGYINPYNDGTDYDEKFKGKATLTSDTSTSTAYMELSSLRSEDTAVYYCAREKDNYATGAWFAYWGQGTLVTVSSASTKGPSVFPLAPSSKSTSGGTAALGCLVKDYFPEPVTVSWNSGALTSGVHTFPAVLQSSGLYSLSSVVTVPSSSLGTQTYICNVNHKPSNTKVDKKVEPKSCDKTHTCPPCPAPEKKGGPSVFLFPPKPKDTLMISRTPEVTCVVVDVSHEDPEVKFNWYVDGVEVHNAKTKPREEQYNSTYRVVSVLTVLHQDWLNGKEYKCKVSNKALPAPIEKTISKAKGQPREPQVYVLPPSREEMTKNQVSLLCLVKGFYPSDIAVEWESNGQPENRYMTWPPVLDSDGSFFLYSKLTVDKSRWQQGNVFSCSVMHEALHNHYTQKSLSLSPGK heavy 2: QVQLQQSGPEVVKPGASVKMSCKASGYTFTSYVIHWVRQKPGQGLDWIGYINPYNDGTDYDEKFKGKATLTSDTSTSTAYMELSSLRSEDTAVYYCAREKDNYATGAWFAYWGQGTLVTVSSASTKGPSVFPLAPSSKSTSGGTAALGCLVKDYFPEPVTVSWNSGALTSGVHTFPAVLQSSGLYSLSSVVTVPSSSLGTQTYICNVNHKPSNTKVDKKVEPKSCDKPGSGIWELKKDVYVVELDWYPDAPGEMVVLTCDTPEEDGITWTLDQSSEVLGSGKTLTIQVKEFGDAGQYTCHKGGEVLSHSLLLLHKKEDGIWSTDILKDQKEPKNKTFLRCEAKNYSGRFTCWWLTTISTDLTFSVKSSRGSSDPQGVTCGAATLSAERVRGDNKEYEYSVECQEDSACPAAEESLPIEVMVDAVHKLKYENYTSSFFIRDIIKPDPPKNLQLKPLKNSRQVEVSWEYPDTWSTPHSYFSLTFCVQVQGKSKREKKDRVFTDKTSATVICRKNASISVRAQDRYYSSSWSEWASVPCSGGGGSGGGGSGGGGSGGGGSGRNLPVATPDPGMFPCLHHSQNLLRAVSNMLQKARQTLEFYPCTSEEIDHEDITKDKTSTVEACLPLELTKNESCLNSRETSFITNGSCLASRKTSFMMALCLSSIYEDLKMYQVEFKTMNAKLLMDPKRQIFLDQNMLAVIDELMQALNFNSETVPQKSSLEEPDFYKTKIKLCILLHAFRIRAVTIDRVMSYLNASDKTHTCPPCPAPEDEGGPSVFLFPPKPKDTLMISRTPEVTCVVVDVSHEDPEVKFNWYVDGVEVHNAKTKPREEQYNSTYRVVSVLTVLHQDWLNGKEYKCKVSNKALPAPIEKTISKAKGQPREPQVYVYPPSREEMTKNQVSLTCLVKGFYPSDIAVEWESNGQPENNYKTTPPVLDEDGSFALVSKLTVDKSRWQQGNVFSCSVMHEALHNHYTQKSLSLSPGK | 43% | 25% | no binding
Fab-IL-12(F60A)-Fc-CD4 Ab (other, copies: 2 + 1 + 1) light: not shown heavy 1: QVQLQQSGPEVVKPGASVKMSCKASGYTFTSYVIHWVRQKPGQGLDWIGYINPYNDGTDYDEKFKGKATLTSDTSTSTAYMELSSLRSEDTAVYYCAREKDNYATGAWFAYWGQGTLVTVSSASTKGPSVFPLAPSSKSTSGGTAALGCLVKDYFPEPVTVSWNSGALTSGVHTFPAVLQSSGLYSLSSVVTVPSSSLGTQTYICNVNHKPSNTKVDKKVEPKSCDKTHTCPPCPAPEKKGGPSVFLFPPKPKDTLMISRTPEVTCVVVDVSHEDPEVKFNWYVDGVEVHNAKTKPREEQYNSTYRVVSVLTVLHQDWLNGKEYKCKVSNKALPAPIEKTISKAKGQPREPQVYVLPPSREEMTKNQVSLLCLVKGFYPSDIAVEWESNGQPENRYMTWPPVLDSDGSFFLYSKLTVDKSRWQQGNVFSCSVMHEALHNHYTQKSLSLSPGK heavy 2: QVQLQQSGPEVVKPGASVKMSCKASGYTFTSYVIHWVRQKPGQGLDWIGYINPYNDGTDYDEKFKGKATLTSDTSTSTAYMELSSLRSEDTAVYYCAREKDNYATGAWFAYWGQGTLVTVSSASTKGPSVFPLAPSSKSTSGGTAALGCLVKDYFPEPVTVSWNSGALTSGVHTFPAVLQSSGLYSLSSVVTVPSSSLGTQTYICNVNHKPSNTKVDKKVEPKSCDKPGSGIWELKKDVYVVELDWYPDAPGEMVVLTCDTPEEDGITWTLDQSSEVLGSGKTLTIQVKEAGDAGQYTCHKGGEVLSHSLLLLHKKEDGIWSTDILKDQKEPKNKTFLRCEAKNYSGRFTCWWLTTISTDLTFSVKSSRGSSDPQGVTCGAATLSAERVRGDNKEYEYSVECQEDSACPAAEESLPIEVMVDAVHKLKYENYTSSFFIRDIIKPDPPKNLQLKPLKNSRQVEVSWEYPDTWSTPHSYFSLTFCVQVQGKSKREKKDRVFTDKTSATVICRKNASISVRAQDRYYSSSWSEWASVPCSGGGGSGGGGSGGGGSGGGGSGRNLPVATPDPGMFPCLHHSQNLLRAVSNMLQKARQTLEFYPCTSEEIDHEDITKDKTSTVEACLPLELTKNESCLNSRETSFITNGSCLASRKTSFMMALCLSSIYEDLKMYQVEFKTMNAKLLMDPKRQIFLDQNMLAVIDELMQALNFNSETVPQKSSLEEPDFYKTKIKLCILLHAFRIRAVTIDRVMSYLNASDKTHTCPPCPAPEDEGGPSVFLFPPKPKDTLMISRTPEVTCVVVDVSHEDPEVKFNWYVDGVEVHNAKTKPREEQYNSTYRVVSVLTVLHQDWLNGKEYKCKVSNKALPAPIEKTISKAKGQPREPQVYVYPPSREEMTKNQVSLTCLVKGFYPSDIAVEWESNGQPENNYKTTPPVLDEDGSFALVSKLTVDKSRWQQGNVFSCSVMHEALHNHYTQKSLSLSPGK | 32.2% | 1.5% | no binding
Fab-IL-12(E59A/F60A)-Fc-CD4 Ab (other) light: not shown heavy 1: QVQLQQSGPEVVKPGASVKMSCKASGYTFTSYVIHWVRQKPGQGLDWIGYINPYNDGTDYDEKFKGKATLTSDTSTSTAYMELSSLRSEDTAVYYCAREKDNYATGAWFAYWGQGTLVTVSSASTKGPSVFPLAPSSKSTSGGTAALGCLVKDYFPEPVTVSWNSGALTSGVHTFPAVLQSSGLYSLSSVVTVPSSSLGTQTYICNVNHKPSNTKVDKKVEPKSCDKTHTCPPCPAPEKKGGPSVFLFPPKPKDTLMISRTPEVTCVVVDVSHEDPEVKFNWYVDGVEVHNAKTKPREEQYNSTYRVVSVLTVLHQDWLNGKEYKCKVSNKALPAPIEKTISKAKGQPREPQVYVLPPSREEMTKNQVSLLCLVKGFYPSDIAVEWESNGQPENRYMTWPPVLDSDGSFFLYSKLTVDKSRWQQGNVFSCSVMHEALHNHYTQKSLSLSPGK heavy 2: QVQLQQSGPEVVKPGASVKMSCKASGYTFTSYVIHWVRQKPGQGLDWIGYINPYNDGTDYDEKFKGKATLTSDTSTSTAYMELSSLRSEDTAVYYCAREKDNYATGAWFAYWGQGTLVTVSSASTKGPSVFPLAPSSKSTSGGTAALGCLVKDYFPEPVTVSWNSGALTSGVHTFPAVLQSSGLYSLSSVVTVPSSSLGTQTYICNVNHKPSNTKVDKKVEPKSCDKPGSGIWELKKDVYVVELDWYPDAPGEMVVLTCDTPEEDGITWTLDQSSEVLGSGKTLTIQVKAAGDAGQYTCHKGGEVLSHSLLLLHKKEDGIWSTDILKDQKEPKNKTFLRCEAKNYSGRFTCWWLTTISTDLTFSVKSSRGSSDPQGVTCGAATLSAERVRGDNKEYEYSVECQEDSACPAAEESLPIEVMVDAVHKLKYENYTSSFFIRDIIKPDPPKNLQLKPLKNSRQVEVSWEYPDTWSTPHSYFSLTFCVQVQGKSKREKKDRVFTDKTSATVICRKNASISVRAQDRYYSSSWSEWASVPCSGGGGSGGGGSGGGGSGGGGSGRNLPVATPDPGMFPCLHHSQNLLRAVSNMLQKARQTLEFYPCTSEEIDHEDITKDKTSTVEACLPLELTKNESCLNSRETSFITNGSCLASRKTSFMMALCLSSIYEDLKMYQVEFKTMNAKLLMDPKRQIFLDQNMLAVIDELMQALNFNSETVPQKSSLEEPDFYKTKIKLCILLHAFRIRAVTIDRVMSYLNASDKTHTCPPCPAPEDEGGPSVFLFPPKPKDTLMISRTPEVTCVVVDVSHEDPEVKFNWYVDGVEVHNAKTKPREEQYNSTYRVVSVLTVLHQDWLNGKEYKCKVSNKALPAPIEKTISKAKGQPREPQVYVYPPSREEMTKNQVSLTCLVKGFYPSDIAVEWESNGQPENNYKTTPPVLDEDGSFALVSKLTVDKSRWQQGNVFSCSVMHEALHNHYTQKSLSLSPGK | 8.2% | 0% | no binding
Fab-IL-12(E59A)-Fc-CD4 Ab (other, copies: 2 + 1 + 1) light: not shown heavy 1: QVQLQQSGPEVVKPGASVKMSCKASGYTFTSYVIHWVRQKPGQGLDWIGYINPYNDGTDYDEKFKGKATLTSDTSTSTAYMELSSLRSEDTAVYYCAREKDNYATGAWFAYWGQGTLVTVSSASTKGPSVFPLAPSSKSTSGGTAALGCLVKDYFPEPVTVSWNSGALTSGVHTFPAVLQSSGLYSLSSVVTVPSSSLGTQTYICNVNHKPSNTKVDKKVEPKSCDKTHTCPPCPAPEKKGGPSVFLFPPKPKDTLMISRTPEVTCVVVDVSHEDPEVKFNWYVDGVEVHNAKTKPREEQYNSTYRVVSVLTVLHQDWLNGKEYKCKVSNKALPAPIEKTISKAKGQPREPQVYVLPPSREEMTKNQVSLLCLVKGFYPSDIAVEWESNGQPENRYMTWPPVLDSDGSFFLYSKLTVDKSRWQQGNVFSCSVMHEALHNHYTQKSLSLSPGK heavy 2: QVQLQQSGPEVVKPGASVKMSCKASGYTFTSYVIHWVRQKPGQGLDWIGYINPYNDGTDYDEKFKGKATLTSDTSTSTAYMELSSLRSEDTAVYYCAREKDNYATGAWFAYWGQGTLVTVSSASTKGPSVFPLAPSSKSTSGGTAALGCLVKDYFPEPVTVSWNSGALTSGVHTFPAVLQSSGLYSLSSVVTVPSSSLGTQTYICNVNHKPSNTKVDKKVEPKSCDKPGSGIWELKKDVYVVELDWYPDAPGEMVVLTCDTPEEDGITWTLDQSSEVLGSGKTLTIQVKAFGDAGQYTCHKGGEVLSHSLLLLHKKEDGIWSTDILKDQKEPKNKTFLRCEAKNYSGRFTCWWLTTISTDLTFSVKSSRGSSDPQGVTCGAATLSAERVRGDNKEYEYSVECQEDSACPAAEESLPIEVMVDAVHKLKYENYTSSFFIRDIIKPDPPKNLQLKPLKNSRQVEVSWEYPDTWSTPHSYFSLTFCVQVQGKSKREKKDRVFTDKTSATVICRKNASISVRAQDRYYSSSWSEWASVPCSGGGGSGGGGSGGGGSGGGGSGRNLPVATPDPGMFPCLHHSQNLLRAVSNMLQKARQTLEFYPCTSEEIDHEDITKDKTSTVEACLPLELTKNESCLNSRETSFITNGSCLASRKTSFMMALCLSSIYEDLKMYQVEFKTMNAKLLMDPKRQIFLDQNMLAVIDELMQALNFNSETVPQKSSLEEPDFYKTKIKLCILLHAFRIRAVTIDRVMSYLNASDKTHTCPPCPAPEDEGGPSVFLFPPKPKDTLMISRTPEVTCVVVDVSHEDPEVKFNWYVDGVEVHNAKTKPREEQYNSTYRVVSVLTVLHQDWLNGKEYKCKVSNKALPAPIEKTISKAKGQPREPQVYVYPPSREEMTKNQVSLTCLVKGFYPSDIAVEWESNGQPENNYKTTPPVLDEDGSFALVSKLTVDKSRWQQGNVFSCSVMHEALHNHYTQKSLSLSPGK | 29.8% | 1.1% | no binding
